Laboratory results published in article PMC10119292, “Characterization of a fold in TANGO1 evolved from SH3 domains for the export of bulky cargos” (Nature Communications, 2023).

T1: human Otoraplin, residues 18-128 (human, UniProt Q9NRC9 18-128)
T1 construct: Otoraplin, human, UniProt Q9NRC9, residues 18-128; [U-15N]-enriched for the NMR titrations; also called Otoraplin (18-128); not shown: His-tag, N-terminal, cleaved
T1 sequence (looked up): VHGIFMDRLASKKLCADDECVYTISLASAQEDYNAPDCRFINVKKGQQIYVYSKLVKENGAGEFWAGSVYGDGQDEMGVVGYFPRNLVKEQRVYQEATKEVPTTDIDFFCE


What was measured:
[1] = target: Collagen type IV from human placenta (human) (UniProt P08572); experiment: MST; RED-NHS-labeled collagen type IV constant at 25 nM, unlabeled partner varied (16 1:1 dilutions); 10 mM HEPES pH 7.2, 150 mM NaCl, 0.005% Tween-20, 15 µM BSA; 25 °C; 60% LED power, high MST power, MST-on time 1.5 s
[2] = target: T1, human Otoraplin, residues 18-128; experiment: NMR titration; 1H-15N HSQC series of [U-15N]-Otoraplin with SOS1 (1149-1158) at protein:peptide ratios 1:0.5 to 1:50; PBS pH 7.4, 298 K; two-dimensional lineshape analysis (TITAN), two-state binding model; details: both partners purified
[3] = target: human TANGO1 cargo-recognition (MOTH) domain, residues 21-131 (human, UniProt Q5JRA6-4 21-131, disulfides Cys38-Cys43 and Cys61-Cys124; cis-Pro83; His-tag removed with TEV (PDB 7R3M entity has one extra N-terminal Met); 15N or 15N/13C labelled for NMR); experiment: NMR titration; 1H-15N HSQC series of 208 µM [U-15N]-hsTANGO1(21-131) with peptide 132-151 at ratios 1:0.25 to 1:6; 25 mM HEPES pH 7.4, 150 mM NaCl, 298 K; two-dimensional lineshape analysis (TITAN), two-state binding model; details: both partners purified
Sequence of human TANGO1 cargo-recognition (MOTH) domain, residues 21-131 (Q5JRA6 other isoform, or with tags, fused parts or gaps): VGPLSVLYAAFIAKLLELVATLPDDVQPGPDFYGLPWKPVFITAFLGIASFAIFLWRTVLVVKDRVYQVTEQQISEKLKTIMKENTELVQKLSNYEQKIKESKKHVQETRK

Binder | Kd [1] | further results
human Otoraplin, residues 18-128 (domain or fragment) VHGIFMDRLASKKLCADDECVYTISLASAQEDYNAPDCRFINVKKGQQIYVYSKLVKENGAGEFWAGSVYGDGQDEMGVVGYFPRNLVKEQRVYQEATKEVPTTDIDFFCE | 9.9 µM | 
VPPPVPPRRR (peptide, UniProt Q07889 1149-1158, looked up, SOS1, residues 1149-1158; also called class II ligand; PPII class II ligand; source: synthetic peptide) [SOS1 (1149-1158), class II PPII helix peptide] |  | Kd [2]: 1300 µM; koff [2]: 350000 s⁻¹
human TALI MOTH domain, residues 23-123 (domain or fragment) TKLLADLKKCGDLECEALINRVSAMRDYRGPDCRYLNFTKGEEISVYVKLAGEREDLWAGSKGKEFGYFPRDAVQIEEVFISEEIQMSTKESDFLCLLGVS | 11.4 µM | 
Drosophila melanogaster TANGO1 cargo-recognition domain, residues 30-139 (domain or fragment) TLTWAATLSDKRLCADPKCEQIISMGIAKITYAIGGEGLISFKINSPIRVLSKSAGSNMQLWGVDINGRRGYANKDFIMEKKILVRDKDLLYEVPVVGPGSPVQSVETPV | 6.9 µM | 
human TANGO1 MOTH domain with C-terminal helix, residues 21-151 (domain or fragment) PGQLDPSTGRRFSEHKLCADDECSMLMYRGEALEDFTGPDCRFVNFKKGDPVYVYYKLARGWPEVWAGSVGRTFGYFPKDLIQVVHEYTKEELQVPTDETDFVCFDGGRDDFHNYNVEELLGFLELYNSAA | 3.3 µM | 
FHNYNVEELLGFLELYNSAA (peptide, UniProt Q5JRA6 132-151, looked up, TANGO1, human, UniProt Q5JRA6, residues 132-151; also called C-terminal helix peptide; peptide corresponding to residues 132–151; source: synthetic peptide) [synthetic peptide of human TANGO1 residues 132-151 (predicted C-terminal helix)] |  | Kd [3]: 321 µM; koff [3]: 1100 s⁻¹
